# Key:
# [1] = molecular target: T1, endogenous human Tie1 (primary human endothelial cells, HUVEC, human tissue sections, SW480 cells) (human, UniProt P35590 25-1138); experiment: immunofluorescence, HDMEC
# T1 construct: also called endogenous Tie1; HDMEC
# [2] = molecular target: T2, V5-tagged full length human Tie1 expressed in COS1 cells (pcDNA3-Tie1-V5) (human, UniProt P35590 25-1138); experiment: Western blot, Tie1-V5-transfected COS1 cells
# T2 construct: Cell lysates in Western blot and immunoprecipitation, fixed cells in immunofluorescence; also called Tie1-transfected; transfected Tie1
# T2 sequence (P35590 25-1138): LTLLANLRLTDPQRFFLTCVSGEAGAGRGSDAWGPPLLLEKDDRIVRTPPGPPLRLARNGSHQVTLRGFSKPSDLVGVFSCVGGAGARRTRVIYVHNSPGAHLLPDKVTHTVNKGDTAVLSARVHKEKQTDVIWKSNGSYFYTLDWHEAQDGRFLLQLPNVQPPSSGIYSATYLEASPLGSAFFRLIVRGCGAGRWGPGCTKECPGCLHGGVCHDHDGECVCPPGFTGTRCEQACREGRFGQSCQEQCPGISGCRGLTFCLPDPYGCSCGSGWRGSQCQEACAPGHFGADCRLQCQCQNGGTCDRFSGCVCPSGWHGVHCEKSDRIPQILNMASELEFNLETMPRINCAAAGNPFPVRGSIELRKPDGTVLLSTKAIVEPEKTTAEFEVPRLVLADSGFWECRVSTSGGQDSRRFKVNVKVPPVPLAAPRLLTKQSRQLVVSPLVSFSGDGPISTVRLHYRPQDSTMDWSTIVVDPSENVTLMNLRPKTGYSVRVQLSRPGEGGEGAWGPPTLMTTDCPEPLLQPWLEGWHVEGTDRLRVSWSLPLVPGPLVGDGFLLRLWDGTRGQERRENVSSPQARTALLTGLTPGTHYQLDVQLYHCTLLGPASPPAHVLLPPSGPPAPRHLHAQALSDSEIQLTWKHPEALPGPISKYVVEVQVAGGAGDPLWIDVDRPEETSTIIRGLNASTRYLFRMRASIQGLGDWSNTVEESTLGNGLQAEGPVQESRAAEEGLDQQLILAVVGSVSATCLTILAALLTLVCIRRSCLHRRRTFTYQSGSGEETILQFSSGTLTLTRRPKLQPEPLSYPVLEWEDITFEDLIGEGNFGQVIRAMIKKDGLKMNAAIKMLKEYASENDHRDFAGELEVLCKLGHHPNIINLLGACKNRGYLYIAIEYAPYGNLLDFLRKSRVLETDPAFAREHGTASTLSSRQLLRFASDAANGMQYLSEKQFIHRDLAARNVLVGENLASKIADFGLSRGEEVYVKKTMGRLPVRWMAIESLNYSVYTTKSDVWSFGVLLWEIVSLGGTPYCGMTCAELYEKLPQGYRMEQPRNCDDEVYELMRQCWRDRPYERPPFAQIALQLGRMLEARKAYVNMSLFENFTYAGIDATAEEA
# Description: (§1) COS1 cells were transfected with pcDNA3-Tie1-V5 (1 μg DNA per 10 cm cell culture plate) using FUGENE 6 (Roche) according to manufacturer's instruction and incubated for 48 h before stimulation. For immunoprecipitation, Tie1 transfected cells and HMVEC cells were lysed in DOC-RIPA lysis buffer (50 mM Tris-HCl pH 8.0, 150 mM NaCl, 1% Triton-X-100, 0.1% SDS, 1% DOC, 10 mM EDTA) supplemented with aprotinin, leupeptin, PMSF and sodium vanadate. Immunoprecipitation was carried out from equal amount of cell lysates by incubating with polyclonal anti-human Tie1 antibodies (R&D), monoclonal anti-V5 antibodies (Invitrogen) or altogether 23 anti-Tie1 antibodies (1 μg/ml) for 1 to 2 h followed by incubation with protein G-Sepharose (Amersham Pharmacia Biotech AB) for 1 h. The immunoprecipitates were washed twice with PBS-T and twice with PBS, followed by elution with the Laemmli buffer and separation in 8% SDS-PAGE. The blots were probed with the 23 anti-Tie1 antibodies (5 μg/ml) and subsequently anti-human Fc antibodies conjugated with HRP.
# (§2) Next, to find out if the anti-Tie1 antibodies recognize Tie1 in living cells, those cells were studied by immunofluorescence staining.
# [3] = molecular target: T1, endogenous human Tie1 (primary human …); experiment: Western blot, HDMEC; Western blot, HDMEC
# Description: as §1, §2
# T1 sequence (P35590 25-1138): as above
Binder,binding result [1],binding result [2],binding result [3]
"anti-Tie1 antibody G2, IgG (antibody, V domains shown, VL entry is lambda and stops within FR4) VH: EVQLLESGGGLVQPGGSLRLSCAASGFTFSSYKMGWVRQAPGRGLEWVSSIYPSGGWTHYADSVKGRFTISRDNSKNTLYLQMNSLRAEDTAVYYCARVLLHYFDYWGQGTLVTVSS VL: QSVLTQPASVSGSPGQSITISCTGTSSDVGGYKYVSWYQQHPGKAPKLIISDVNNRPSGVSDRFSGSKSGNTASLTISGLQAEDDGDYYCSSYASSSYTSSTTWVFGG",binds,binds,
"anti-Tie1 antibody s-B2, IgG (antibody, V domains shown, VH entry is a raw phagemid read that runs into CH1) VH: EVQLLESGGGLVQPGGSLRLSCAASGFTFSIYGMAWVRQAPGKGLEWVSVISPSGGQTFYADSVKGRFTISRDNSKNTLYLQMNSLRAEDTAVYYCARVYYYGMDVWGQGTTVTVSS VL: DIQMTQSPATLSLSPGERATLSCRASQSVSSYLAWYQQKPGQAPRLLIYDASNRATGIPARFSGSGSETDFTLTISSLEPEDFAVYYCQQRSKWPRTFGQGTKLEIK",,binds,binds
"anti-Tie1 antibody s-D11, IgG (antibody, V domains shown, VH entry is a raw phagemid read that runs into CH1; also called Di1) VH: EVQLLESGGGLVQPGGSLRLSCAASGFTFSGYAMWWVRQAPGKGLEWVSSISPSGGATAYADSVKGRFTISRDNSKNTLYLQMNSLRAEDTAVYYCARDAGSYYWGWFDPWGQGTLVTVSS VL: DIQMTQSPATLSLSPGERATLSCRASQSISSYLAWYQQKPGQPPRLLIYDASSRVTGIPARFSGSGFGTDFTLTISSLEPEDFAVYYCLQRSSWPRTFGQGTKLEIK",,binds,binds

# Reference: patent US20050136053A1 (DYAX, published 2005)
